± gives the uncertainty stated by the source.
B1: Proto-oncogene vav, residues 782 to 842; numbered along this chain, P15498 (parent)
chain: KYFGTAKARYDFCARDRSELSLKEGDIIKILNKKGQQGWWRGEIYGRVGWFPANYVEEDYS

Variants of: B1
Test: abundance fitness (aPCA) (normalised: wild type 0, dead -1); higher = more abundant; growth selection in yeast, the domain comes from the species named
Conditions: Homo sapiens

Which abundance fitness does the source give for KYFGTAKARYDFCARDRSELSLKEGDIIKILNKKGQQGWWRGEIYGRVGWFPANYVEFDYS here?
The abundance fitness was -0.297 ± 0.16.

With KYFGTAKARYDFCARDRSELSLKEGDIIKILNKKGQQGWWRGEIYGRVGWFPANYVETDYS as the variant, how does the abundance fitness read?
Its abundance fitness is -0.129 ± 0.093.

Which abundance fitness does the source give for KYFGTAKARYDFCARDRSELSLKEGDIIKILNKKGQQGWWRGEIYGRVGWFPANYVEVDYS here?
The abundance fitness was -0.117 ± 0.089.

Which abundance fitness does the source give for KYFGTAKARYDFCARDRSELSLKEGDIIKILNKKGQQGWWRGEIYGRVGWFPANYVEGDYS here?
The abundance fitness was -0.338 ± 0.082.

With KYFGTAKARYDFCARDRSELSLKEGDIIKILNKKGQQGWWRGEIYGRVGWFPANYVEADYS as the variant, how does the abundance fitness read?
The abundance fitness was -0.186 ± 0.077.

For KYFGTAKARYDFCARDRSELSLKEGDIIKILNKKGQQGWWRGEIYGRVGWFPANYVEHDYS, which abundance fitness is on record?
The abundance fitness was -0.533 ± 0.31.

Which abundance fitness does the source give for KYFGTAKARYDFCARDRSELSLKEGDIIKILNKKGQQGWWRGEIYGRVGWFPANYVEWDYS here?
The abundance fitness was -0.364 ± 0.1.

For KYFGTAKARYDFCARDRSELSLKEGDIIKILNKKGQQGWWRGEIYGRVGWFPANYVEYDYS, which abundance fitness is on record?
Its abundance fitness is -0.065 ± 0.14.

With KYFGTAKARYDFCARDRSELSLKEGDIIKILNKKGQQGWWRGEIYGRVGWFPANYVELDYS as the variant, how does the abundance fitness read?
Its abundance fitness is -0.225 ± 0.077.

With KYFGTAKARYDFCARDRSELSLKEGDIIKILNKKGQQGWWRGEIYGRVGWFPANYVERDYS as the variant, how does the abundance fitness read?
The abundance fitness was -0.336 ± 0.076.

For KYFGTAKARYDFCARDRSELSLKEGDIIKILNKKGQQGWWRGEIYGRVGWFPANYVEDDYS, which abundance fitness is on record?
Its abundance fitness is -0.435 ± 0.2.

With KYFGTAKARYDFCARDRSELSLKEGDIIKILNKKGQQGWWRGEIYGRVGWFPANYVESDYS as the variant, how does the abundance fitness read?
Its abundance fitness is -0.362 ± 0.095.

For KYFGTAKARYDFCARDRSELSLKEGDIIKILNKKGQQGWWRGEIYGRVGWFPANYVEQDYS, which abundance fitness is on record?
The abundance fitness was -0.19 ± 0.17.

With KYFGTAKARYDFCARDRSELSLKEGDIIKILNKKGQQGWWRGEIYGRVGWFPANYVEPDYS as the variant, how does the abundance fitness read?
Its abundance fitness is -0.169 ± 0.12.

With KYFGTAKARYDFCARDRSELSLKEGDIIKILNKKGQQGWWRGEIYGRVGWFPANYVEMDYS as the variant, how does the abundance fitness read?
Its abundance fitness is -0.216 ± 0.094.

With KYFGTAKARYDFCARDRSELSLKEGDIIKILNKKGQQGWWRGEIYGRVGWFPANYVENDYS as the variant, how does the abundance fitness read?
The abundance fitness was -0.6 ± 0.38.

With KYFGTAKARYDFCARDRSELSLKEGDIIKILNKKGQQGWWRGEIYGRVGWFPANYVEEDES as the variant, how does the abundance fitness read?
The abundance fitness was 0.005 ± 0.13.

With KYFGTAKARYDFCARDRSELSLKEGDIIKILNKKGQQGWWRGEIYGRVGWFPANYVEEDIS as the variant, how does the abundance fitness read?
The abundance fitness was -0.024 ± 0.12.

With KYFGTAKARYDFCARDRSELSLKEGDIIKILNKKGQQGWWRGEIYGRVGWFPANYVEEDLS as the variant, how does the abundance fitness read?
Its abundance fitness is 0.062 ± 0.057.

Which abundance fitness does the source give for KYFGTAKARYDFCARDRSELSLKEGDIIKILNKKGQQGWWRGEIYGRVGWFPANYVEEDGS here?
Its abundance fitness is -0.039 ± 0.085.

Which abundance fitness does the source give for KYFGTAKARYDFCARDRSELSLKEGDIIKILNKKGQQGWWRGEIYGRVGWFPANYVEEDAS here?
The abundance fitness was -0.079 ± 0.088.

Which abundance fitness does the source give for KYFGTAKARYDFCARDRSELSLKEGDIIKILNKKGQQGWWRGEIYGRVGWFPANYVEEDCS here?
The abundance fitness was -0.119 ± 0.14.

Which abundance fitness does the source give for KYFGTAKARYDFCARDRSELSLKEGDIIKILNKKGQQGWWRGEIYGRVGWFPANYVEEDKS here?
Its abundance fitness is -0.122 ± 0.19.

For KYFGTAKARYDFCARDRSELSLKEGDIIKILNKKGQQGWWRGEIYGRVGWFPANYVEEDHS, which abundance fitness is on record?
Its abundance fitness is 0.027 ± 0.17.

Which abundance fitness does the source give for KYFGTAKARYDFCARDRSELSLKEGDIIKILNKKGQQGWWRGEIYGRVGWFPANYVEEDFS here?
The abundance fitness was 0.017 ± 0.15.

Which abundance fitness does the source give for KYFGTAKARYDFCARDRSELSLKEGDIIKILNKKGQQGWWRGEIYGRVGWFPANYVEEDDS here?
The abundance fitness was 0.106 ± 0.18.

Which abundance fitness does the source give for KYFGTAKARYDFCARDRSELSLKEGDIIKILNKKGQQGWWRGEIYGRVGWFPANYVEEDMS here?
The abundance fitness was 0.009 ± 0.1.

With KYFGTAKARYDFCARDRSELSLKEGDIIKILNKKGQQGWWRGEIYGRVGWFPANYVEEVYS as the variant, how does the abundance fitness read?
The abundance fitness was -0.009 ± 0.073.

With KYFGTAKARYDFCARDRSELSLKEGDIIKILNKKGQQGWWRGEIYGRVGWFPANYVEETYS as the variant, how does the abundance fitness read?
The abundance fitness was 0.008 ± 0.082.

With KYFGTAKARYDFCARDRSELSLKEGDIIKILNKKGQQGWWRGEIYGRVGWFPANYVEEPYS as the variant, how does the abundance fitness read?
Its abundance fitness is -0.371 ± 0.11.

For KYFGTAKARYDFCARDRSELSLKEGDIIKILNKKGQQGWWRGEIYGRVGWFPANYVEEQYS, which abundance fitness is on record?
The abundance fitness was 0.01 ± 0.11.

For KYFGTAKARYDFCARDRSELSLKEGDIIKILNKKGQQGWWRGEIYGRVGWFPANYVEEYYS, which abundance fitness is on record?
Its abundance fitness is -0.244 ± 0.1.

With KYFGTAKARYDFCARDRSELSLKEGDIIKILNKKGQQGWWRGEIYGRVGWFPANYVEECYS as the variant, how does the abundance fitness read?
The abundance fitness was -0.125 ± 0.11.

With KYFGTAKARYDFCARDRSELSLKEGDIIKILNKKGQQGWWRGEIYGRVGWFPANYVEEGYS as the variant, how does the abundance fitness read?
Its abundance fitness is -0.097 ± 0.088.

Which abundance fitness does the source give for KYFGTAKARYDFCARDRSELSLKEGDIIKILNKKGQQGWWRGEIYGRVGWFPANYVEELYS here?
The abundance fitness was -0.138 ± 0.06.

With KYFGTAKARYDFCARDRSELSLKEGDIIKILNKKGQQGWWRGEIYGRVGWFPANYVEENYS as the variant, how does the abundance fitness read?
The abundance fitness was 0.052 ± 0.1.

For KYFGTAKARYDFCARDRSELSLKEGDIIKILNKKGQQGWWRGEIYGRVGWFPANYVEEFYS, which abundance fitness is on record?
The abundance fitness was -0.015 ± 0.11.

For KYFGTAKARYDFCARDRSELSLKEGDIIKILNKKGQQGWWRGEIYGRVGWFPANYVEEAYS, which abundance fitness is on record?
Its abundance fitness is -0.188 ± 0.082.

Which abundance fitness does the source give for KYFGTAKARYDFCARDRSELSLKEGDIIKILNKKGQQGWWRGEIYGRVGWFPANYVEEWYS here?
The abundance fitness was 0.048 ± 0.15.

Which abundance fitness does the source give for KYFGTAKARYDFCARDRSELSLKEGDIIKILNKKGQQGWWRGEIYGRVGWFPANYVEEMYS here?
The abundance fitness was -0.027 ± 0.12.

Which abundance fitness does the source give for KYFGTAKARYDFCARDRSELSLKEGDIIKILNKKGQQGWWRGEIYGRVGWFPANYVEERYS here?
Its abundance fitness is -0.285 ± 0.081.

Which abundance fitness does the source give for KYFGTAKARYDFCARDRSELSLKEGDIIKILNKKGQQGWWRGEIYGRVGWFPANYVEEEYS here?
Its abundance fitness is -0.038 ± 0.1.

Which abundance fitness does the source give for KYFGTAKARYDFCARDRSELSLKEGDIIKILNKKGQQGWWRGEIYGRVGWFPANYVEEHYS here?
The abundance fitness was -0.109 ± 0.11.

With KYFGTAKARYDFCARDRSELSLKEGDIIKILNKKGQQGWWRGEIYGRVGWFPANYVYEDYS as the variant, how does the abundance fitness read?
The abundance fitness was -0.106 ± 0.11.
